# IntAct's records for PubMed 10446210
# B1: "Na(+)/H(+) exchange regulatory cofactor NHE-RF1" (Oryctolagus cuniculus (Rabbit)), Q28619 (parent)
# chain: MSADAAAGAPLPRLCCLEKGPNGYGFHLHGEKGKVGQYIRLVEPGSPAEKAGLLAGDRLVEVNGENVEKETHQQVVSRIRAALNAVRLLVVDPDTDEQFRKLGVQIRGELLRAQAGPEQAGPPAAPGEQGPAGENEPREVEKSHPERRELRPRLCAMKKGPNGYGFNLHSDKSRPGQFIRAVDPDSPAEASGLREQDRIVEVNGVCVEGKQHGDVVTAIKAGGDEAKLLVVDKETDEFFKKCKVVPSSEHLNGPLPEPFTNGEIQKNNPETLAPAASESPRPALARSASSDTSEELASQDSPKKEDSTAPSSTSSSSDPILDFSISLAVAKERAHQKRSSRRAPQMDWSEKKELFSNL
# Variants of: B1
# Conditions: with Grk6, O70293-1
# Sequence of Grk6, O70293-1 (O70293 whole entry): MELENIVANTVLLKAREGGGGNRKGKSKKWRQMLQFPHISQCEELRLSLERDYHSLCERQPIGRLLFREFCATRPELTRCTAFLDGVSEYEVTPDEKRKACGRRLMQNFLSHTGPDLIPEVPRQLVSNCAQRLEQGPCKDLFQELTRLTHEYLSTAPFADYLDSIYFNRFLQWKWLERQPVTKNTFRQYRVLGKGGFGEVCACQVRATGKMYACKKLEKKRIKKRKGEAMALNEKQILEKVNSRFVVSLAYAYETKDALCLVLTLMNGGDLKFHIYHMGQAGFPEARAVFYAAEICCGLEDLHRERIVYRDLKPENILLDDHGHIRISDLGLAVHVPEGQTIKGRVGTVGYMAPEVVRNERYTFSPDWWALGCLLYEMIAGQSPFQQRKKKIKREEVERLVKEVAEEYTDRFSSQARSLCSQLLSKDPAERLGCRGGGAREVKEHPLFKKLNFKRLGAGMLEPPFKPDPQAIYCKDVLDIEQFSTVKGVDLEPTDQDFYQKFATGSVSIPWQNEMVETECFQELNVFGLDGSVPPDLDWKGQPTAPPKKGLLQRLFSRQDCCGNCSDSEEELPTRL
row,effect of a mutation on the interaction,Variant
1,decreasing interaction,K158A
2,decreasing interaction,K159A

# Variants of: B1
# Conditions: with Grk6, O70293-1
# Remark: another data set of the same source
row,effect of a mutation on the interaction,Variant
1,disrupting interaction,S289A
